In PMC3335016, “Analysis of the Nse3/MAGE-Binding Domain of the Nse4/EID Family Proteins” (PLoS ONE, 2012) one finds percent of parent data, which are given here for 7 variants.

First the molecules themselves.
B1: EID2 WT peptide (aa 197-217) [modified: biotin, linked via the SGSG spacer; biotin, linked via the SGSG spacer] [human] / His-S-MAGEC2(129-339) [human] (parent complex)
chain 1: QRNPHRVDLDILTFTIALTAS
chain 2: GLPDSESSFTYTLDEKVAELVEFLLLKYEAEEPVTEAEMLMIVIKYKDYFPVILKRAREFMELLFGLALIEVGPDHFCVFANTVGLTDEGSDDEGMPENSLLIIILSVIFIKGNCASEEVIWEVLNAVGVYAGREHFVYGEPRELLTKVWVQGHYLEYREVPHSSPPYYEFLWGPRAHSESIKKKVLEFLAKLNNTVPSSFPSWYKDALKD

This assay covers variants of B1. Nature of the assay: PEPSCAN-ELISA; parent: 100; read off a plot. A general note: An ELISA detects its analyte on a solid surface through an enzyme-linked reagent.
In the case of chain 1 QRNAHRVDLDILTFTIALTAS, the percent of parent was around 45%.

Take chain 1 QRNPHRVDLDILTFAIALTAS: the percent of parent was around 67%.

Turning to chain 1 QRNPHRADLDILTFTIALTAS, the percent of parent was around 34%.

Turning to chain 1 QRNPARVDLDILTFTIALTAS, the percent of parent is around 38%.

Take chain 1 QRAPHRVDLDILTFTIALTAS: the percent of parent was around 58%.

With chain 1 QRNPHRVALDILTFTIALTAS, the percent of parent was around 86%.

chain 1 QRNPHRVDLDILAFTIALTAS: the percent of parent was around 46%.
